The labels stand for the following.
B1: Sumo–BRPF2 (1–80) (domain or fragment, human, UniProt O95696 1-80, looked up)
chain: MRRKGRCHRGSAARHPSSPCSVKHSPTRETLTYAQAQRMVEIEIEGRLHRISIFDPLEIILEDDLTAQEMSECNSNKENS
B2: Sumo–BRPF2 (1–205) (domain or fragment, human, UniProt O95696 1-205, looked up)
chain: MRRKGRCHRGSAARHPSSPCSVKHSPTRETLTYAQAQRMVEIEIEGRLHRISIFDPLEIILEDDLTAQEMSECNSNKENSERPPVCLRTKRHKNNRVKKKNEALPSAHGTPASASALPEPKVRIVEYSPPSAPRRPPVYYKFIEKSAEELDNEVEYDMDEEDYAWLEIVNEKRKGDCVPAVSQSMFEFLMDRFEKESHCENQKQG

For the first assay, the target named is HBO1 MYST domain (residues 336–611), without tag, co-expressed with BRPF2 (human, UniProt O95251 336-611). The assay can be described thus: crystal structure.
Sequence of HBO1 MYST domain (residues 336–611), without tag, co-expressed with BRPF2 (O95251 336-611): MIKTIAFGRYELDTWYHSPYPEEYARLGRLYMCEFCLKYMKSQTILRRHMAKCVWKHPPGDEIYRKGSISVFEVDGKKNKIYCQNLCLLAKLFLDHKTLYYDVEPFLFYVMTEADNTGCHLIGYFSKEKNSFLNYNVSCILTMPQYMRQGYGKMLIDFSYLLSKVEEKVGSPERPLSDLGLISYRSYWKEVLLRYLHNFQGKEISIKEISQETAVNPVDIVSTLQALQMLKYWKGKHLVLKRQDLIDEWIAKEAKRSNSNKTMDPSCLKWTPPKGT
In general, stoichiometry N refers to a count of units in the complex or per binding partner. In the case of LTYAQAQRMVEIEIEGRLHRISIFDPLEIILEDDLTAQEMSECNSNKENS (domain or fragment, human, UniProt O95696 31-80, looked up) [BRPF2 (31–80), His6 tag removed, co-expressed with the HBO1 MYST domain], the “stoichiometry N” value turned out to be 1.

For the next assay, the target named is GST-fused HBO1 MYST domain (residues 336–611) (human, UniProt O95251 336-611). The assay can be described thus: pull-down.
Sequence of GST-fused HBO1 MYST domain (residues 336–611) (O95251 336-611): as the sequence (O95251 336-611) above
For the molecule MVEIEIEGRLHRISIFDPLEIILEDDLT (domain or fragment, human, UniProt O95696 39-66, looked up) [Sumo–BRPF2 (39–66)], the binding result is on record as “binds”.

In the case of MVEIEIEGRLHRISIFDPLEIILE (domain or fragment, human, UniProt O95696 39-62, looked up) [Sumo–BRPF2 (39–62)], the binding result is “binds”.

Consider LTYAQAQRMVEIEIEGRLHRISIFDPLEIILE (domain or fragment, human, UniProt O95696 31-62, looked up) [Sumo–BRPF2 (31–62)], for which the binding result is “binds”.

As to LTYAQAQRMVAIAIAGRLHRISIFDPLEIILEDDLTAQEMSECNSNKENS (domain or fragment, human, UniProt O95696 31-80, looked up) [Sumo–BRPF2 (31–80) E41A/E43A/E45A], the binding result was “binds”.

As to LTYAQAQRMVEIEIEGRLHRISIFDPLEIILKKKLTAQEMSECNSNKENS (domain or fragment, human, UniProt O95696 31-80, looked up) [Sumo–BRPF2 (31–80) E62K/D63K/D64K], the binding result is on record as “binds”.

In the case of LTYAQAQRMVKIKIKGRLHRISIFDPLEIILEDDLTAQEMSECNSNKENS (domain or fragment, human, UniProt O95696 31-80, looked up) [Sumo–BRPF2 (31–80) E41K/E43K/E45K], the binding result is given as “binds”.

As for LTYAQAQRMVEIEIEGRLHRISIFDPLEIILAAALTAQEMSECNSNKENS (domain or fragment, human, UniProt O95696 31-80, looked up) [Sumo–BRPF2 (31–80) E62A/D63A/D64A], the binding result was “binds”.

On to B1, for which the binding result is recorded as “binds”.

With B2, the binding result is “binds”.

The record behind these values is PMC5449618 (Nucleic Acids Research, 2017).
